For the data set, the target named is Hfq (Escherichia coli, UniProt P0A6X3 1-102). The data set is described as follows: competition; competitor 20-600 fmol vs 20 fmol labelled tRNA (N1); Same conditions as the CCA-addition assay (30 °C, 1 and 10 min); buffer, salt and pH not in the material; native 6% polyacrylamide gel. The note with it: protein: recombinant; chain copies: 6.
Chain of Hfq (P0A6X3 whole entry): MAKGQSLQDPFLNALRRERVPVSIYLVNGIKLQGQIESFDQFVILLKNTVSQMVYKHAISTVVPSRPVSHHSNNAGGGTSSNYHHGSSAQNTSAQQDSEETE

B1: pCR 2.1 TOPO run-off transcript (ssRNA)
RNA: GGGCGAAUUGGGCCCUCUAGAUGCAUGCUCGAGCGGCCGCCAGUGUGAUGGAU
For B1, the binding result is “no binding”.

The values are drawn from PMC2175515, “Hfq stimulates the activity of the CCA-adding enzyme”.
